Reference: paper PMC9340783, “Development of a fully human anti‐GITR antibody with potent antitumor activity using H2L2 mice” (FEBS Open Bio, 2022)

T1: cynoGITR on 293F‐cynoGITR cells (Macaca fascicularis)
T1 construct: also called 293F‐cGITR
T1 chain: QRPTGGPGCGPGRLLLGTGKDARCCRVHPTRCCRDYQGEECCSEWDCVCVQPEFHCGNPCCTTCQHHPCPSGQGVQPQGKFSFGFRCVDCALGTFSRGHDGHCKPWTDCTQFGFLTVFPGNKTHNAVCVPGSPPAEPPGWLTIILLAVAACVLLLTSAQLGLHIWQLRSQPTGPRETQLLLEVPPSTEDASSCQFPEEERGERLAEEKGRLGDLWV

T2: cynoGITR ECD hFc (Macaca fascicularis)
T2 construct: cynomolgus GITR, extracellular domain, Gln20-Glu155, NCBI XP_005545180.1; also called cynoGITR protein; cGITR; source: FreeStyle 293F, transiently transfected, purified by protein A
T2 chain: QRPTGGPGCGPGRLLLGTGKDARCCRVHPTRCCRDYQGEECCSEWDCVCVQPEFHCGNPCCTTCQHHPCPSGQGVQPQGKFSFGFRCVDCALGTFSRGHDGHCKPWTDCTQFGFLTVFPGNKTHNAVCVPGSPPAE


How the values were obtained:
[1] = target: T3, human GITR on 293F‐hGITR cells (Homo sapiens (Human)., UniProt Q9Y5U5-1); assay: cell-based or functional assay
[2] = target: T3, human GITR on 293F‐hGITR cells; assay: flow cytometry on cells; 293F‐hGITR or 293F‐cynoGITR cells incubated with antibodies at 4 °C for 1 h, fluorescent anti-rat/human secondary antibody; EC50 of MFI curve; conditions: one partner purified
[3] = target: T1, cynoGITR on 293F‐cynoGITR cells; assay: as above; conditions: one partner purified
hGITR ECD hFc [4] = target: T4, hGITR ECD hFc (Homo sapiens (Human)., UniProt Q9Y5U5, Thr45Ala); assay: ELISA; indirect ELISA; antigen hFc fusion protein coated on 96-well plates (1 μg·mL^−1 overnight at 4 °C in Fig. 3B), antibody added, detected with anti-rat IgG/hIgG-peroxidase antibody; conditions: both partners purified
T4 construct: human GITR (glucocorticoid-induced TNF receptor-related), extracellular domain, Gln26-Glu161 with Thr45Ala, UniProt Q9Y5U5.1; also called human GITR protein; source: FreeStyle 293F, transiently transfected, purified by protein A

cynoGITR ECD hFc = target: T2, cynoGITR ECD hFc; assay: as above; conditions: both partners purified
hGITR ECD hFc [5] = target: T4, hGITR ECD hFc; assay: SPR; Biacore T200; hGITR ECD hFc immobilised on a Series S CM5 chip; antibody 0, 3.125, 6.25, 12.5, 25 and 50 nM; association 180 s, dissociation 600 s; conditions: both partners purified

T3 sequence (Q9Y5U5 26-241): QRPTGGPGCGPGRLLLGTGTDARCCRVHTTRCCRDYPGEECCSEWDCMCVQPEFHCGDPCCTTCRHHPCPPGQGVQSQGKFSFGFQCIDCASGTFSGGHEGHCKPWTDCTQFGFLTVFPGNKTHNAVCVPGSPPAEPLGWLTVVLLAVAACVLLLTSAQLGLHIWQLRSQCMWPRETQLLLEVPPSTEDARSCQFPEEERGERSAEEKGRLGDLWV

Row | NF‐ĸB luciferase reporter assay, Crosslinking, EC50 [1] [nM] | NF‐ĸB luciferase reporter assay, Crosslinking, Top ratio [1] [fold] | NF‐ĸB luciferase reporter assay, No crosslinking, EC50 [1] [nM] | NF‐ĸB luciferase reporter assay, No crosslinking, Top ratio [1] [fold] | EC50 [2] [nM] | EC50 [3] [nM] | EC50 (hGITR ECD hFc [4]) [nM] | EC50 (cynoGITR ECD hFc) [nM] | Kd (hGITR ECD hFc [5]) [nM] | Binder
1 | > 0.09 | 7 | 0.062 | 10 | 0.358 | 0.198 | 0.022 | 0.025 | – | mAb070 (antibody, V domains shown, as the VH of m14; as the VL of m14; Human-murine chimeric antibody from H2L2 mice: human variable regions, rat constant regions; source: hybridoma cell culture supernatant, purified (Protein A)) VH: QVQLVESGGGVVQPGRSLRLSCAASGFTFSSYGMHWVRQAPGKGLEWVAVIWYETSNKFYVDSVKGRFTISRDNSKNTLYLQMNSLRAEDTAVYYCARYGASSGWYWYFDLWGRGTLVTVSS VL: DIQLTQSPSFLSASVGDRVTITCRASQGISSFLAWYQQKPGKAPKLLIYAASTLQSGVPSRFSGSGSGTEFTLTISSLQPEDFATYCCQQLNSYPFTFGQGTKLEIK
2 | 9.26 | 12 | 0.264 | 11 | 0.235 | 0.313 | 0.093 | 0.096 | – | hab064e1 (antibody, V domains shown, 3503‐hab064‐VH(N2S); the substitution is against the VH of m13; position not given; 3503‐hab064‐Vk(T2K/C2Y); the substitutions are against the VL of m13; positions not given; Whole antibody, human IgG1 heavy chain constant region, human kappa light chain constant region; source: FreeStyle 293F, transiently co-transfected, purified from culture supernatant) VH: QVQLVESGGGVVQPGRSLRLSCAASGFTFSSYGMHWVRQAPGKGLEWVAVIWYETSNKYYADSVKGRFTISRDNSKNTLYLQMNSLRAEDTAVYYCARYGGNSGWYWYFDLWGRGTLVTVSS VL: DIQLTQSPSFLSASVGDRVTITCRASQGISSFLAWYQQKPGKAPKLLIYAASTLQSGVPSRFSGSGSGTEFTLTISSLQPEDFATYYCQQLNSYPFTFGQGTKLEIK
3 | 7.32 | 16 | 0.111 | 9 | 0.19 | 0.19 | 0.099 | 0.106 | 0.251 | hab070 (antibody, V domains shown, 3503‐hab070‐VH; 3503‐hab070‐Vk; Whole antibody, human IgG1 heavy chain constant region, human kappa light chain constant region; source: FreeStyle 293F, transiently co-transfected, purified from culture supernatant) VH: QVQLVESGGGVVQPGRSLRLSCAASGFTFSSYGMHWVRQAPGKGLEWVAVIWYETSNKFYVDSVKGRFTISRDNSKNTLYLQMNSLRAEDTAVYYCARYGASSGWYWYFDLWGRGTLVTVSS VL: DIQLTQSPSFLSASVGDRVTITCRASQGISSFLAWYQQKPGKAPKLLIYAASTLQSGVPSRFSGSGSGTEFTLTISSLQPEDFATYCCQQLNSYPFTFGQGTKLEIK
4 | 6.07 | 20 | 0.157 | 9 | 0.179 | 0.418 | 0.091 | 0.101 | 1.03 | hab076 (antibody, V domains shown, 3503‐hab076‐VH; 3503‐hab076‐Vk; Whole antibody, human IgG1 heavy chain constant region, human kappa light chain constant region; source: FreeStyle 293F, transiently co-transfected, purified from culture supernatant) VH: QVQLVESGGGVVQPGRSLRLSCAASGFTFSSYGMHWVRQAPGKGLEWVAVIWYETSNKYYADSVKGRFTISRDNSKNTLYLQMNSLRAEDTAVYYCARYGASSGWYWYFDLWGRGTLVTVSS VL: DIQLTQSPSFLSASVGDRVTITCRASQGISSYLAWYQQKPGKAPKLLIYAASTLQSGVPSRFSGSGSGTEFTLTISSLQPEDFATYCCQQLNSYPFTFGQGTKLEIK
5 | 0.101 | 7 | > 0.2 | 10 | 0.385 | 0.404 | 0.038 | 0.035 | – | mAb064 (antibody, V domains shown, as the VH of m13; as the VL of m13; Human-murine chimeric antibody from H2L2 mice: human variable regions, rat constant regions; source: hybridoma cell culture supernatant, purified (Protein A)) VH: QVQLVESGGGVVQPGRSLRLSCAASGFTFSSYGMHWVRQAPGKGLEWVAVIWYETSNKYYADSVKGRFTISRDNSKNTLYLQMNNLRAEDTAVYYCARYGGNSGWYWYFDLWGRGTLVTVSS VL: DIQLTQSPSFLSASVGDRVTITCRASQGISSFLAWYQQKPGTAPKLLIYAASTLQSGVPSRFSGSGSGTEFTLTISSLQPEDFATYCCQQLNSYPFTFGQGTKLEIK
6 | 5.16 | 13 | 0.264 | 8 | 0.195 | 0.26 | 0.087 | 0.094 | – | hab076e1 (antibody, V domains shown, as the VH of m15 (3503‐hab076‐VH); 3503‐hab076‐Vk(C2Y); the substitution is against the VL of m15 (Cys in FR3 of VL); position not given; Whole antibody, human IgG1 heavy chain constant region, human kappa light chain constant region; source: FreeStyle 293F, transiently co-transfected, purified from culture supernatant) VH: QVQLVESGGGVVQPGRSLRLSCAASGFTFSSYGMHWVRQAPGKGLEWVAVIWYETSNKYYADSVKGRFTISRDNSKNTLYLQMNSLRAEDTAVYYCARYGASSGWYWYFDLWGRGTLVTVSS VL: DIQLTQSPSFLSASVGDRVTITCRASQGISSYLAWYQQKPGKAPKLLIYAASTLQSGVPSRFSGSGSGTEFTLTISSLQPEDFATYYCQQLNSYPFTFGQGTKLEIK
7 | > 0.27 | 8 | > 0.09 | 14 | 0.152 | 0.226 | 0.01 | 0.012 | – | mAb076 (antibody, V domains shown, as the VH of m15; as the VL of m15; Human-murine chimeric antibody from H2L2 mice: human variable regions, rat constant regions; source: hybridoma cell culture supernatant, purified (Protein A)) VH: QVQLVESGGGVVQPGRSLRLSCAASGFTFSSYGMHWVRQAPGKGLEWVAVIWYETSNKYYADSVKGRFTISRDNSKNTLYLQMNSLRAEDTAVYYCARYGASSGWYWYFDLWGRGTLVTVSS VL: DIQLTQSPSFLSASVGDRVTITCRASQGISSYLAWYQQKPGKAPKLLIYAASTLQSGVPSRFSGSGSGTEFTLTISSLQPEDFATYCCQQLNSYPFTFGQGTKLEIK
8 | 7.13 | 12 | 0.177 | 10 | 0.165 | 0.22 | 0.106 | 0.108 | 0.592 | hab064 (antibody, V domains shown, 3503‐hab064‐VH; 3503‐hab064‐Vk; Whole antibody, human IgG1 heavy chain constant region, human kappa light chain constant region; source: FreeStyle 293F, transiently co-transfected, purified from culture supernatant) VH: QVQLVESGGGVVQPGRSLRLSCAASGFTFSSYGMHWVRQAPGKGLEWVAVIWYETSNKYYADSVKGRFTISRDNSKNTLYLQMNNLRAEDTAVYYCARYGGNSGWYWYFDLWGRGTLVTVSS VL: DIQLTQSPSFLSASVGDRVTITCRASQGISSFLAWYQQKPGTAPKLLIYAASTLQSGVPSRFSGSGSGTEFTLTISSLQPEDFATYCCQQLNSYPFTFGQGTKLEIK
9 | 12.5 | 11 | – | 20 | 0.163 | 0.011 | 0.008 | 0.007 | – | mAb019 (antibody, V domains shown, as the VH of m12 (hab019 was made from the variable regions of mAb019); as the VL of m12; Human-murine chimeric antibody from H2L2 mice: human variable regions, rat constant regions; source: hybridoma cell culture supernatant, purified (Protein A)) VH: QVQLVESGGGVVQPGRSLRLSCAASGFTFSSYGMHWVRQAPGKGLEWVAVIWYAGSRKFYADSVEGRFTISRDNSKNTLYLQMSSVRPEDTAVYYCARGGSLDGGFFYYGMDVWGQGTTVTVSS VL: not shown
10 | 8.75 | 14 | 0.269 | 9 | 0.215 | 0.277 | 0.098 | 0.089 | – | hab019e3 (antibody, V domains shown, 3503‐hab019‐VH(DA + NLA); positions not given; as the VL of m12 (3503‐hab019‐Vk); Whole antibody, human IgG1 heavy chain constant region, human kappa light chain constant region; source: FreeStyle 293F, transiently co-transfected, purified from culture supernatant) VH: QVQLVESGGGVVQPGRSLRLSCAASGFTFSSYGMHWVRQAPGKGLEWVAVIWYAGSRKFYADSVEGRFTISRDNSKNTLYLQMNSLRAEDTAVYYCARGGSLDAGFFYYGMDVWGQGTTVTVSS VL: not shown
11 | 8.66 | 13 | 0.265 | 10 | 0.244 | 0.304 | 0.103 | 0.092 | 0.401 | hab019 (antibody, V domains shown, 3503‐hab019‐VH; 3503‐hab019‐Vk; Whole antibody, human IgG1 heavy chain constant region, human kappa light chain constant region; source: FreeStyle 293F, transiently co-transfected, purified from culture supernatant) VH: QVQLVESGGGVVQPGRSLRLSCAASGFTFSSYGMHWVRQAPGKGLEWVAVIWYAGSRKFYADSVEGRFTISRDNSKNTLYLQMSSVRPEDTAVYYCARGGSLDGGFFYYGMDVWGQGTTVTVSS VL: not shown
12 | 9.46 | 12 | 0.26 | 8 | 0.181 | 0.287 | 0.082 | 0.079 | – | hab019e1 (antibody, V domains shown, 3503‐hab019‐VH(DG + NLA); positions not given; as the VL of m12 (3503‐hab019‐Vk); Whole antibody, human IgG1 heavy chain constant region, human kappa light chain constant region; source: FreeStyle 293F, transiently co-transfected, purified from culture supernatant) VH: QVQLVESGGGVVQPGRSLRLSCAASGFTFSSYGMHWVRQAPGKGLEWVAVIWYAGSRKFYADSVEGRFTISRDNSKNTLYLQMNSLRAEDTAVYYCARGGSLDGGFFYYGMDVWGQGTTVTVSS VL: not shown
